Source: patent publication US20160347850A1 (AbbVie / Abbott, published 2016)

Columns and labels:
[1] = molecular target: T1, mouse CD40 (mouse, UniProt P27512 20-289); assay: Alexa 647 labeled Ab102 on the surface of B cells
T1 construct: whole, on cells
T1 sequence (looked up): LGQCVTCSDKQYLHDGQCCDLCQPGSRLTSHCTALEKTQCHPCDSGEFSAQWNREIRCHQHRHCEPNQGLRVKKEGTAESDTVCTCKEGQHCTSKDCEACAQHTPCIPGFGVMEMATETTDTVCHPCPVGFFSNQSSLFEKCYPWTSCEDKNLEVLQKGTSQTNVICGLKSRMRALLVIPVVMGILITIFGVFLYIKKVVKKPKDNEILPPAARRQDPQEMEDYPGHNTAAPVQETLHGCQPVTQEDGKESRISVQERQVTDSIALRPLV

[2] = molecular target: T2, rat CD40 (rat, UniProt A6JXD6 20-289); assay: Alexa 647 labeled Ab102 on the surface of B cells
T2 sequence: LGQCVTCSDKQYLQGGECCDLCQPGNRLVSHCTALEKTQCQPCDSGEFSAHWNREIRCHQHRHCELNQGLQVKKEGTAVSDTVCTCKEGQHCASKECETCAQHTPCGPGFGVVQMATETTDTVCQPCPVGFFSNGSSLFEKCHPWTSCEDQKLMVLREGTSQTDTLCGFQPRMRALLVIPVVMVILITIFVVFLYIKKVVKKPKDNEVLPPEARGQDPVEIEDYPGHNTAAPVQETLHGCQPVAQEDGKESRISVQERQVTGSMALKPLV

[3] = molecular target: T3, Human CD40 (human, UniProt P25942 21-277); assay: cell-based or functional assay
T3 sequence (P25942 21-277 limits assumed): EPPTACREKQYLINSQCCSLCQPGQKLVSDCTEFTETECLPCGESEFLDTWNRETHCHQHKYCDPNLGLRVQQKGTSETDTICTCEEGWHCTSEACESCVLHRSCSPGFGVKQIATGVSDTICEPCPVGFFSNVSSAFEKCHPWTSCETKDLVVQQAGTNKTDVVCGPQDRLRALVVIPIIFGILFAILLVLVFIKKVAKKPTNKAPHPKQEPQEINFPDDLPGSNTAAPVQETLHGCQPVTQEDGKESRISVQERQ

[4] = molecular target: T4, cyno CD40 (cynomolgus monkey, UniProt G7PG38 21-278); assay: Alexa 647 labeled Ab102 binding to CD40 on the surface of cynomolgus monkey B cells
T4 construct: whole, on cells; also called cyCD40; cynomolgus monkey CD40
Procedure: (§1) The cross-reactivity of Ab102 with CD40 from various species was tested. […] Binding of Ab102 to mouse, rat, and rabbit CD40 could not be detected at concentrations up to 30 μg/mL (200 nM).

[5] = molecular target: T3, Human CD40; assay: Alexa 647 labeled Ab102 binding to CD40 on the surface of human B cells
Procedure: as §1

binding result [1]: no binding (tested: 30 µg/mL (200 nM)) | binding result [2]: no binding (tested: 30 µg/mL (200 nM)) | Monocyte Activation Assay, Antagonist IC50 (nM), Experiment 1 [3]: 0.06 nM | Monocyte Activation Assay, Antagonist IC50 (nM), Experiment 2 [3]: 0.23 nM | Monocyte Activation Assay, Antagonist IC50 (nM), Experiment 3 [3]: 0.11 nM | EC50 [4]: 1.4 nM | EC50 [5]: 0.89 nM
B1: Ab102 (antibody, human IgG1, kappa, L234A L235A, V domains shown)
VH: EVQLVESGGGLVKPGGSLRLSCAASGFTFSDYGMNWVRQAPGKGLEWIAYISSGRGNIYYADTVKGRFTISRDNAKNSLYLQMNSLRAEDTAVYYCARSWGYFDVWGQGTTVTVSS
VL: DIVMTQSPDSLAVSLGERATINCKSSQSLLNRGNQKNYLTWFQQKPGQPPKLLIYWASTRESGVPDRFSGSGSGTDFTLTISSLQAEDVAVYYCQNDYTYPLTFGQGTKLEIKR
notes: Humanized IgG1/kappa with L234A, L235A, T250Q, M428L (LALA-QL); also called VL huAbv1/VH huAb1v1CDR2v7/hCg1/k-LALA-QL; mAb CD40 Ab102 [hu IgG1/k]; LALA QL
